Test results: patent publication US20210301000A1
Where a chain is given by its changes, count along the chain named.

B1: Mutation 3 (antibody, V domains shown)
VH: QVQLQQSGAELVRPGTSVKISCKASGYTFTDYWIGWVKQRPGHGLEWIGDMWPGDLYINYQEKFKGKATLTADTSSNTAYMQLSSLTSEDSAVYFCTNFITVGGLDYWGRGTSLTVSS
VL: DVVMTQTPLTLSVTIGQPASISCKSSQSLLSSDGRTYLNWLLQRPGQSPKRLIYLVTKVDSGVPDRFTGSGSVTDFTLKISRVESEDLGVYYCWQGTHFFHTFGAGTKLEVKR
B2: WT 1-1 (antibody, V domains shown)
VH: B1 VH with T28S, D31E, W52V, Q61N, L105V
VL: B1 VL with S31E, R35K, V59I, Q95Y, F100A
B3: Mutation 1-40 (antibody, V domains shown)
VH: B1 VH with W52F, L56V, V102L, L105I
VL: B1 VL with Q27N, S31D, T57S, V59I, Q95Y, F100P
B4: WT 1-20 (antibody, V domains shown)
VH: B1 VH with T28S, W52V, L56I
VL: B1 VL with S31E, V59L, Q95W, F100A
B5: Mutation 1-19 (antibody, V domains shown)
VH: B1 VH with D31E, W52F, L56I, Q61N, V102L, L105I
VL: B1 VL with Q27N, S31D, T57S, V59I, Q95Y, F100P
B6: Mutation 1-25 (antibody, V domains shown)
VH: B1 VH with D31E, W52F, L56V, I100L, V102L
VL: B1 VL with Q27N, S31D, T57S, V59I, Q95Y, F100P
B7: WT 1-30 (antibody, V domains shown)
VH: B1 VH with T28S, D31E, W52V, Q61N, I100L, L105V
VL: B1 VL with Q27N, S31E, R35K, V59I, Q95W, F100A
B8: recombinant anti-dengue virus NS1 11E2 antibody (WT) (antibody, mouse IgG2a, kappa, V domains shown)
VH: B1 VH with T28S, W52V
VL: B1 VL with Q27N, S31D, R35K, V59I, Q95W, F100P
B9: WT 1-4 (antibody, V domains shown)
VH: B1 VH with T28S, W52V, L56I, I100L, L105V
VL: B1 VL with S31E, V59I, Q95Y, F100A
B10: Mutation 1-28 (antibody, V domains shown)
VH: B1 VH with W52F, L56I, Q61N, V102L, L105I
VL: B1 VL with Q27N, S31D, T57S, V59I, Q95Y, F100P
B11: Mutation 1-46 (antibody, V domains shown)
VH: B1 VH with D31E, W52F, L56I, Q61N, V102L, L105I
VL: B1 VL with Q27N, S31D, T57S, Q95Y, F100P
B12: WT 1-7 (antibody, V domains shown)
VH: B1 VH with T28S, D31E, W52V, L105V
VL: B1 VL with S31E, R35K, V59I, Q95Y, F100A

What was measured:
[1] = target: (DN-(I+II+III+IV)-NS) antigen (self-produced, expressed in insects) (dengue virus); experiment: capture ELISA, antibody at 1000 ng/ml
[2] = target: (DN-(I+II+III+IV)-NS) antigen (self-produced, expressed in insects) (dengue virus); experiment: capture ELISA, antibody at 111.111 ng/ml
[3] = target: (DN-(I+II+III+IV)-NS) antigen (self-produced, expressed in insects) (dengue virus); experiment: capture ELISA, antibody at 333.333 ng/ml
[4] = target: DN quality control product recombinant protein (a recombinant antigen produced by the company itself) (dengue virus); experiment: AMO sensor, antibody on sensor, antigen in solution
[5] = target: (DN-(I+II+III+IV)-NS) antigen (self-produced, expressed in insects) (dengue virus); experiment: capture ELISA, antibody at 1.372 ng/ml
[6] = target: (DN-(I+II+III+IV)-NS) antigen (self-produced, expressed in insects) (dengue virus); experiment: capture ELISA, antibody at 4.115 ng/ml
[7] = target: (DN-(I+II+III+IV)-NS) antigen (self-produced, expressed in insects) (dengue virus); experiment: capture ELISA, antibody at 12.346 ng/ml
[8] = target: (DN-(I+II+III+IV)-NS) antigen (self-produced, expressed in insects) (dengue virus); experiment: capture ELISA, antibody at 37.037 ng/ml
[9] = target: (DN-(I+II+III+IV)-NS) antigen (self-produced, expressed in insects) (dengue virus); experiment: capture ELISA, antibody at 0 ng/ml (blank)

Binder	Kd [4]	koff [4]	kon [4]	further results
B1				OD450 (ref 630) [1]: 0.847 OD; OD450 (ref 630) [2]: 0.056 OD; OD450 (ref 630) [3]: 0.347 OD
B2	12.8 nM	5.86e-05 s⁻¹	4570 M⁻¹ s⁻¹	
B3	4.05 nM	0.000171 s⁻¹	42300 M⁻¹ s⁻¹	
B4	45.9 nM	0.000143 s⁻¹	3120 M⁻¹ s⁻¹	
B5	4.72 nM	0.000279 s⁻¹	59200 M⁻¹ s⁻¹	
B6	6.04 nM	0.000273 s⁻¹	45100 M⁻¹ s⁻¹	
B7	20.4 nM	0.000149 s⁻¹	7280 M⁻¹ s⁻¹	
B8	58.8 nM	0.000398 s⁻¹	6770 M⁻¹ s⁻¹	OD450 (ref 630) [1]: 2.32 OD; OD450 (ref 630) [5]: 0.297 OD; OD450 (ref 630) [6]: 0.448 OD; OD450 (ref 630) [7]: 0.838 OD; OD450 (ref 630) [8]: 1.66 OD; OD450 (ref 630) [2]: 2.2 OD; OD450 (ref 630) [3]: 2.38 OD; OD450 (ref 630) [9]: 0.163 OD
B9	28 nM	0.000142 s⁻¹	5080 M⁻¹ s⁻¹	
B10	6.59 nM	0.000337 s⁻¹	51200 M⁻¹ s⁻¹	
B11	8 nM	0.000479 s⁻¹	59900 M⁻¹ s⁻¹	
B12	65.5 nM	0.000231 s⁻¹	3530 M⁻¹ s⁻¹	
